Test results reported in paper PMC2743916 (Structure (London, England : 1993), 2008).

T1: Spt4 (residues 1-99) (S. cerevisiae, UniProt P32914 1-99)
T1 sequence (looked up): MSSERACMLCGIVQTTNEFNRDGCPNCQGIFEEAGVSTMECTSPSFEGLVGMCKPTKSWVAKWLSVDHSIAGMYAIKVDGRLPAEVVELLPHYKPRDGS

B1: Spt5NGN domain (residues 285-375) (domain or fragment, S. cerevisiae, UniProt P27692 285-375, looked up)
chain: ATIWGVRCRPGKEKELIRKLLKKKFNLDRAMGKKKLKILSIFQRDNYTGRIYIEAPKQSVIEKFCNGVPDIYISQKLLIPVQELPLLLKPN
B2: Spt4/Spt5NGN fusion protein (other, S. cerevisiae)
chain: MSSERACMLCGIVQTTNEFNRDGCPNCQGIFEEAGVSTMECTSPSFEGLVGMCKPTKSWVAKWLSVDHSIAGMYAIKVDGRLPAEVVELLPHYKPRDGSGSATIWGVRCRPGKEKELIRKLLKKKFNLDRAMGKKKLKILSIFQRDNYTGRIYIEAPKQSVIEKFCNGVPDIYISQKLLIPVQELPLLLKPN

Tests used:
Spt4 (residues 1-99) = target: T1, Spt4 (residues 1-99); assay: crystal structure
crystal structure = target: the molecule itself; assay: crystal structure

Binder | binding result (Spt4 (residues 1-99)) | binding result (crystal structure)
B1 | binds | –
B2 | – | binds
